Measured values: publication PMC8916728 (2022)

T1: NRP2 a2b1b2 (human neuropilin 2 residues 145 to 595, monomeric IgG1 Fc tag) (human, UniProt O60462 145-595)
T1 chain: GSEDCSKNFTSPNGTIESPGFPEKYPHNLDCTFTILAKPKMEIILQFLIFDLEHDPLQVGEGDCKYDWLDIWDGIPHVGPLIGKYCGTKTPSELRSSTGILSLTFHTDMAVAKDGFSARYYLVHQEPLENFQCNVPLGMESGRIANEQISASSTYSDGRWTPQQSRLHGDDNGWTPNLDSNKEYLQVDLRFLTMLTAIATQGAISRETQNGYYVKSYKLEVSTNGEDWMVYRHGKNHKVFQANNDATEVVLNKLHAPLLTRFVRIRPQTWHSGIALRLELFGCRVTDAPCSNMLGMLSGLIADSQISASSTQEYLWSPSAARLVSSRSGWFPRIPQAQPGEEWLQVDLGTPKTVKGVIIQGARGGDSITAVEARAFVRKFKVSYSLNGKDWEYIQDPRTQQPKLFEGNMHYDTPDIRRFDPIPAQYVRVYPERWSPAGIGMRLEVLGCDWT

T2: monoFc-tagged NRP2 (human neuropilin 2 a1a2b1b2, residues 23 to 595) (human, UniProt O60462 23-595)
T2 chain: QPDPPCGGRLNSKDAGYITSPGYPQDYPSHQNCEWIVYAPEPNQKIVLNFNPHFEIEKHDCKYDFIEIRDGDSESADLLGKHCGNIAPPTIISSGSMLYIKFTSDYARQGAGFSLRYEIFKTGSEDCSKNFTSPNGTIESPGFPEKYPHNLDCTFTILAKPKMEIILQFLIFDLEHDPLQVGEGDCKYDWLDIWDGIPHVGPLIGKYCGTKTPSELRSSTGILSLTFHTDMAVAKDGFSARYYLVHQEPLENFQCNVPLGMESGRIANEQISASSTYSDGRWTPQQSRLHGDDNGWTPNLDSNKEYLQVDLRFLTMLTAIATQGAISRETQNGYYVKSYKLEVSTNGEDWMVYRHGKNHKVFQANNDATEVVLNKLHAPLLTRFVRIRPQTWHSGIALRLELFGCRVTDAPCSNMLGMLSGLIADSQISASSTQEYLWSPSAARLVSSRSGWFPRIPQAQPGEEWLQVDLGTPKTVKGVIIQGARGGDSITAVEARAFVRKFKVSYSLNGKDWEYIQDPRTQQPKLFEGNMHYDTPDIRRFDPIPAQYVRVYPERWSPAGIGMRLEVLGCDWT

B1: Fab 1-32 (Fab, V domains shown)
VH: QVKLVESGGGVVQPGRSLRLSCAGSGFAFDNYAMHWVRQAPGKGLEWVAVISLEGRNKYYAGPAKGRFSISRDNSRNTVHLQMNSLRPEDTAVYFCARDMRYYYDSNGHYRNRYGMDVWGQGTTVIVSS
VL: DIQMTQSPSSLSASVGDSVTITCQASQDINQFVSWYQQKPGKPPKLLIYDASNLESGVPSRFSGSGSGTHFTFTISSLQPDDIATYYCQQYENLFTFGPGTKVDIK
B2: Fab 2-18 (Fab, V domains shown)
VH: EVQLVQSGGGLVQPGGSLRVSCAASGFSFSDHDMDWVRQAPGKGFEWVGRSRNKDYSSTTEYAASVRGRFTISRHTSEDLLYLELNTVKTEDTAVYFCARGPHHSDRSGYYGGTFDIWGQGTMVTVSS
VL: DIQMTQSPSSVSASVGDRVIITCRASQGISSWLAWYQQKPGRAPRLLIYDASTLESGVPSRFSGRGSGTEFTLTINSLQPEDFATYYCQQGNMFPLTFGGGTKVEIK
B3: soluble ectodomain of the HCMV Pentamer (strain Towne) (complex)
chain 1: RYGAEAISEPLDKAFHLLLNTYGRPIRFLRENTTQCTYNSSLRNSTVVRENAISFNFFQSYNQYYVFHMPRCLFAGPLAEQFLNQVDLTETLERYQQRLNTYALVSKDLASYRSFSQQLKAQDSLGEQPTTVPPPIDLSIPHVWMPPQTTPHGWTESHTTSGLHRPHFNQTCILFDGHDLLFSTVTPCLHQGFYLIDELRYVKITLTEDFFVVTVSIDDDTPMLLIFGHLPRVLFKAPYQRDNFILRQTEKHELLVLVKKDQLNRHSYLKDPDFLDAALDFNYLDLSALLRNSFHRYAVDVLKSGRCQMLDRRTVEMAFAYALALFAAARQEEAGAQVSVPRALDRQAALLQIQEFMITCLSQTPPRTTLLLYPTAVDLAKRALWTPNQITDITSLVRLVYILSKQNQQHLIPQWALRQIADFALKLHKTHLASFLSAFARQELYLMGSLVHSMLVHTTERREIFIVETGLCSLAELSHFTQLLAHPHHEYLSDLYTPCSSSGRRDHSLERLTRLFPDATVPTTVPAALSILSTMQPSTLETFPDLFCLPLGESFSALTVSEHVSYVVTNQYLIKGISYPVSTTVVGQSLIITQTDSQTKCELTRNMHTTHSITAALNISLENCAFCQSALLEYDDTQGVINIMYMHDSDDVLFALDPYNEVVVSSPRTHYLMLLKNGTVLEVTDVVVDATDSRL
chain 2: VAVSVAPTAAEKVPAECPELTRRCLLGEVFQGDKYESWLRPLVNVTRRDGPLSQLIRYRPVTPEAANSVLLDDAFLDTLALLYNNPDQLRALLTLLSSDTAPRWMTVMRGYSECGDGSPAVYTCVDDLCRGYDLTRLSYGRSIFTEHVLGFELVPPSLFNVVVAIRNEATRTNRAVRLPVSTAAAPEGITLFYGLYNAVKEFCLRHQLDPPLLRHLDKYYAGLPPELKQTRVNLPAHSRYGPQAVDAR
chain 3: RVPRVRAEECCEFINVNHPPERCYDFKMCNRFTVALRCPDGEVCYSPEKTAEIRGIVTTMTHSLTRQVVHNKLTSCNYNPLYLEADGRIRCGKVNDKAQYLLGAAGSVPYRWINLEYDKITRIVGLDQYLESVKKHKRLDVCRAKMGYMLQ
chain 4: SPWSTLTANQNPSPPWSKLTYSKPHDAATFYCPFLYPSPPRSPLQFSGFQQVSTGPECRNETLYLLYNREGQTLVERSSTWVKKVIWYLSGRNQTILQRMPQTASKPSDGNVQISVEDAKIFGAHMVPKQTKLLRFVVNDGTRYQMCVMKLESWAHVFRDYSVSFQVRLTFTEANNQTYTFCTHPNLIV
chain 5: QCQRETAEKNDYYRVPHYWDACSRALPDQTRYKYVEQLVDLTLNYHYDASHGLDNFDVLKRINVTEVSLLISDFRRQNRRGGTNKRTTFNAAGSLAPHARSLEFSVRLFAN
B4: Fab 2-25 (Fab, V domains shown)
VH: QVQLVESGAEVKKPGASVKVSCKASGYTFTNYAIHWVRQAPGQRLEWMGWINAGRGNTKYSQKFQGRVTITRDTSASTAYMELSSLRSEDAAVYFCARDESTGDYYYYMDVWGKGTTVTVSS
VL: SYELTQPPSVSVSPGQTASITCSGDRLDDKYASWYQQKAGQSPVLVIYQDNKRPSGIPERFSGSNSGNTATLTISGTQAMDEADYYCQAWDSDTYVFGTGTKVTVL
B5: Fab 1-103 (Fab, V domains shown)
VH: QLQLQESGPGLVKPSETLSLTCSVSGDAISGSNYYWGWIRQPPGKGLQWIGSIYHTGSTFYNPSFSSRVTLSVDTSKNQFSLKLISVNAADTAVYYCARRIRGYSGTYDWGQGTLVTVSS
VL: DIQLTQSPSFLSASVGDRVTITCRASQDISSYVAWYQQKPGNAPKLLISSASTLPSGVPSRFSGSRSGTDFTLTISSLQPEDFATYYCQQLNNFGPGTTVDIK
B6: untagged NRP2 (receptor)
chain: RGQPDPPCGGRLNSKDAGYITSPGYPQDYPSHQNCEWIVYAPEPNQKIVLNFNPHFEIEKHDCKYDFIEIRDGDSESADLLGKHCGNIAPPTIISSGSMLYIKFTSDYARQGAGFSLRYEIFKTGSEDCSKNFTSPNGTIESPGFPEKYPHNLDCTFTILAKPKMEIILQFLIFDLEHDPLQVGEGDCKYDWLDIWDGIPHVGPLIGKYCGTKTPSELRSSTGILSLTFHTDMAVAKDGFSARYYLVHQEPLENFQCNVPLGMESGRIANEQISASSTYSDGRWTPQQSRLHGDDNGWTPNLDSNKEYLQVDLRFLTMLTAIATQGAISRETQNGYYVKSYKLEVSTNGEDWMVYRHGKNHKVFQANNDATEVVLNKLHAPLLTRFVRIRPQTWHSGIALRLELFGCRVTDAPCSNMLGMLSGLIADSQISASSTQEYLWSPSAARLVSSRSGWFPRIPQAQPGEEWLQVDLGTPKTVKGVIIQGARGGDSITAVEARAFVRKFKVSYSLNGKDWEYIQDPRTQQPKLFEGNMHYDTPDIRRFDPIPAQYVRVYPERWSPAGIGMRLEVLGCDWTDSKPTVETLGPTVKSEETTTPYPTEEEATECGENCSFEDDKDLQLPSGFNCNFDFLEEPCGWMYDHAKWLRTTWASSSSPNDRTFPDDRNFLRLQSDSQREGQYARLISPPVHLPRSPVCMEFQYQATGGRGVALQVVREASQESKLLWVIREDQGGEWKHGRIILPSYDMEYQIVFEGVIGKGRSGEIAIDDIRISTDVPLENCMEPISAFAGENFKVDIPEIHEREGYEDEIDDEYEVDWSNSSSATSGSGAPSTDKEKSWLYTLDPILITIIAMSSLGVLLGATCAGLLLYCTCSYSGLSSRSCTTLENYNFELYDGLKHKVKMNHQKCCSEA

Legend:
[1] = molecular target: B3; test: SPR
[2] = molecular target: B3; test: SPR
[3] = molecular target: T1, NRP2 a2b1b2 (human neuropilin 2 …); test: BLI; 2 mM Ca2+
[4] = molecular target: T2, monoFc-tagged NRP2 (human neuropilin 2 …); test: BLI; 2 mM Ca2+
[5] = molecular target: 1-32–captured Pentamer (HCMV Pentamer bound by 1-32 IgG) (human cytomegalovirus (strain Towne) | …, UniProt P17176 24-718); test: BLI; Pentamer captured by 1-32 IgG

| Binder | Kd [2] [nM] | further results |
| --- | --- | --- |
| B1 | 2.82 | koff [1]: 0.000264 s⁻¹ |
| B2 | 0.0493 | – |
| B3 | – | koff [3]: 0.00104 s⁻¹; koff [4]: 0.000271 s⁻¹ |
| B4 | 1.08 | – |
| B5 | 3.11 | – |
| B6 | – | koff [5]: 0.00177 s⁻¹ |
